The target of the data set is HER2 (human, UniProt P04626 23-652). As to the kind of experiment: SPR.

B1: HER2 aptamer (ssDNA)
DNA: AACCGCCCAAATCCCTAAGAGTCTGCACTTGTCATTTTGTATATGTATTTGGTTTTTGGCTCTCACAGACACACTACACACGCACA
modifications: 5'-SH-(CH2)6
For B1, the binding result is recorded as “binds”.

(Values after paper PMC11605949.)
